Columns and labels:
[1] = biological target: hCXCR1 (human) (UniProt P25024); assay: cell-based or functional assay
[2] = biological target: CCR1, 3 and 5-expressing cells (chemokine receptor-expressing cells) (human); assay: blood of a healthy donor passed through a column of biotinylated RANTES coupled streptavidin matrix; flow cytometry before and after
[3] = biological target: CCR7 (human) (UniProt P32248); assay: cell-based or functional assay
Sequence of CCR7 (human) (P32248 25-378): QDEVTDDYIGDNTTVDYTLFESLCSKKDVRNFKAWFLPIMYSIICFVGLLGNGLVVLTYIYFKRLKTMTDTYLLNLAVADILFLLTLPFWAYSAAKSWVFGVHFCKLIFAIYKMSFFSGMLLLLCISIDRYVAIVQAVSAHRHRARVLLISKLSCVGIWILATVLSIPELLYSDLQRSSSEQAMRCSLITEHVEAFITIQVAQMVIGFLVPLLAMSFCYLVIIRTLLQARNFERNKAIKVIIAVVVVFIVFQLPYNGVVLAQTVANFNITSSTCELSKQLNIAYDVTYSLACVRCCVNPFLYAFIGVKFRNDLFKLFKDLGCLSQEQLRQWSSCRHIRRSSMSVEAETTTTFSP

Sequence of hCXCR1 (human) (P25024 whole entry): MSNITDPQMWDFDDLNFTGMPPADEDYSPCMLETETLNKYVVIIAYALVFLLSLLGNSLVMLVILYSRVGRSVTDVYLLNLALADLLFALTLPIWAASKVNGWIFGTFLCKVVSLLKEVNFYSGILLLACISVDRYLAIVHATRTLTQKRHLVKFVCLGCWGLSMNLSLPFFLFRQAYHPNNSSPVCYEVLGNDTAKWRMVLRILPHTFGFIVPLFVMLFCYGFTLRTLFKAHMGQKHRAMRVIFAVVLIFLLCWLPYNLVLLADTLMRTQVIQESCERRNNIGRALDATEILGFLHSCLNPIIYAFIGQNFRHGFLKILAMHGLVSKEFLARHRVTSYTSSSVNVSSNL
Sequence of biotinRANTES (CCL5), RANTES derivatised at Lys(67) with Biotin (P13501 other isoform, or with tags, fused parts or gaps): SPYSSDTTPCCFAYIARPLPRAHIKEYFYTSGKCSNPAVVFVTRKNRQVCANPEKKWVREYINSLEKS

Row | EC50, agonist activity in an Aequorin assay [1] | Substance | also measured
1 | 6.1 nM | biotinIL-8 (6-78), IL-8 (6-78) derivatised at Lys(78) with PEG-Biotin (from UniProt P10145 28-99) (ligand) | 
2 |  | biotinRANTES (CCL5), RANTES derivatised at Lys(67) with Biotin (from UniProt P13501 24-91) (ligand) | reduction of chemokine receptor-expressing cells by the column [2]: 20%
3 | 4.2 nM | recombinant native IL-8 (from UniProt P10145 28-99) (ligand) | 
4 |  | recombinant native MIP-3β (from UniProt Q99731 22-98) (ligand) | EC50, agonist activity in an Aequorin assay [3]: 1.6 nM

Reference: patent publication US20180038858A1
